Test results: patent US12297449, “Engineered CAS9 systems for eukaryotic genome modification” (Sigma-Aldrich Co. LLC)

T1: LrhCas9-NLS (Lactobacillus rhamnosus)
T1 chain: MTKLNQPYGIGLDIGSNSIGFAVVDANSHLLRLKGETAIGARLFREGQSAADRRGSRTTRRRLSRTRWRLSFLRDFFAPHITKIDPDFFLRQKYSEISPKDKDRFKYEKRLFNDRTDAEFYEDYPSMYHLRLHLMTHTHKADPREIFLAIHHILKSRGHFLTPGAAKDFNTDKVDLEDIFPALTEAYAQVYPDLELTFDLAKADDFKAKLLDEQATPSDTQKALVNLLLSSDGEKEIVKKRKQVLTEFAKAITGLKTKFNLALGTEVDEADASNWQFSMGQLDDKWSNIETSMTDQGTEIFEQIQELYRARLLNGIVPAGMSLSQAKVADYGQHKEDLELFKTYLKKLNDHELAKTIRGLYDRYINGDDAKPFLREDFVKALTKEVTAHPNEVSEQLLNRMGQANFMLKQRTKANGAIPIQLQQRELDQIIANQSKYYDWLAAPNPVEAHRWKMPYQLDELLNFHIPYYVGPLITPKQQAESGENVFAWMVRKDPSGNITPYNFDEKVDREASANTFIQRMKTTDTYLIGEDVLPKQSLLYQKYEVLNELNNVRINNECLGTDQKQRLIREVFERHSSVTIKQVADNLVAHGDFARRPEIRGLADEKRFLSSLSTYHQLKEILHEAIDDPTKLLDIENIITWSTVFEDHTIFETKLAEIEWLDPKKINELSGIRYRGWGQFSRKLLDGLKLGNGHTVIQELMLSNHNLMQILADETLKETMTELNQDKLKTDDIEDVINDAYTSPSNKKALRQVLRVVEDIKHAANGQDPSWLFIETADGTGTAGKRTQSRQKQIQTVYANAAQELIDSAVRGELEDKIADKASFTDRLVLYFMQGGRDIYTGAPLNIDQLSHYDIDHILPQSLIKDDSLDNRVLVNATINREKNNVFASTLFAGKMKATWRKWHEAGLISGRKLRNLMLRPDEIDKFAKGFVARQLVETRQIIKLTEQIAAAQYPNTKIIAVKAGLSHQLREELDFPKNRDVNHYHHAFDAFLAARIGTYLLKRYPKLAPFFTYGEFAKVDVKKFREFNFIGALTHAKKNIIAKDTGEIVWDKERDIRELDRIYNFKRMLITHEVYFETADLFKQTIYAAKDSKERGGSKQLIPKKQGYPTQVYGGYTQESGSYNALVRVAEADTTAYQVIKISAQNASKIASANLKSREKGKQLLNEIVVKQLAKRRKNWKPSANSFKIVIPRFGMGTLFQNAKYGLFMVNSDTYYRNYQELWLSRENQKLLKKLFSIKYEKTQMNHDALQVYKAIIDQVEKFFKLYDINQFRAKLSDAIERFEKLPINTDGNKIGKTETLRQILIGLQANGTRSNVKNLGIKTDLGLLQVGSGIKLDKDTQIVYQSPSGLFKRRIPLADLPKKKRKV


Target: T1, LrhCas9-NLS
Experiment: cell_activity; PAM NGAAA; K562
Details: tags: C-terminal SV40 NLS

Row | Binder | activity [% indel]
1 | Lrh POR target 1 sgRNA ; POR target 1 (ssRNA ; dsDNA) RNA: GCUCGUACUGGCGAAUGCUGUCUCAGGUAGAUGUCAGAUCAAUCAGAAAUGAUUGAUCUGACAUCUACGAGUUGAGAUCAAACAAAGCUUCAGCUGAGUUUCAAUUUCUGAGCCCAUGUUGGGCCAUACAUAUGCCACCCGAGUGCAAAUCGGGUGGCUUUUUUU DNA 1: GCTCGTACTGGCGAATGCTGGAAA DNA 2: TTTCCAGCATTCGCCAGTACGAGC | 26.7
2 | Lrh CAR target 2 sgRNA ; CAR target 2 (ssRNA ; dsDNA) RNA: GUGAGAGUCUCCUCCCCAAUGGUCUCAGGUAGAUGUCAGAUCAAUCAGAAAUGAUUGAUCUGACAUCUACGAGUUGAGAUCAAACAAAGCUUCAGCUGAGUUUCAAUUUCUGAGCCCAUGUUGGGCCAUACAUAUGCCACCCGAGUGCAAAUCGGGUGGCUUUUUUU DNA 1: GTGAGAGTCTCCTCCCCAATGGGAAA DNA 2: TTTCCCATTGGGGAGGAGACTCTCAC | 27
